Laboratory results from US20250367292A1, “HLA SUPERAGONISTS AND USES THEREOF” (UNIVERSITY HEALTH NETWORK, priority 2021, published 2025).

Molecular target: T1, HLA-A*24:02-restricted peptides (Homo sapiens, UniProt P04439, D101N/D140Y/D185E/E176V/E190D/F33S/G103R/G107R/I119L/I121M/I306V/K335N/L105A/L180Q/L300P/N151K/N90K/Q86E/Q94H/R106L/R138H/R89G/T104I/T345S/V100E/W191G/Y123F)
T1 construct: T2 cells transduced with the full-length HLA-A*24:02 genes tagged with ΔNGFR; Furin-SGSG-F2A-linked truncated NGFR (ΔNGFR) co-expression marker (C); expressed in transfected cells; host or cells: T2 cells, retrovirally transduced (pMX)
Assay: Peptide-HLA binding assay (biotinylated peptide, SA-PE, flow cytometry)
Format: cell-based
Conditions: irrelevant control peptides
Description: T2-A24 (Wild-type) cells, or T2-A24 cells with a single amino acid substitution at position 81, 82, or 83 were pulsed with 50 μg/ml of biotinylated peptide overnight at 37° C. After intensive washing, the cells were stained by PE-conjugated streptavidin (SA-PE), washed and fluorescence intensity was measured by flow cytometry analysis.

peptide presentation by T2 cells towards non-HLA-A*24:02 restricted peptides: no increase
Substance: HLA-A*24:02 (A81L): HLA-A*24:02 with an Ala to Leu substitution at position 81 (A81L), corresponding to SEQ ID NO: 1
